Test results from patent US6881545 (Takeda / Millennium, dated 2005).
No end group written: not given here.

Target: T1, human pituitary-derived G protein-coupled receptor protein encoded by phGR3 (hGR3), expressed on CHO-19P2 / … (human, UniProt P49683 1-370)
T1 construct: CHO-19P2-9 is a monoclone of CHO-19P2 selected for a stronger response to 19P2-L31; also called full-length receptor protein; 19P2 receptor
T1 sequence: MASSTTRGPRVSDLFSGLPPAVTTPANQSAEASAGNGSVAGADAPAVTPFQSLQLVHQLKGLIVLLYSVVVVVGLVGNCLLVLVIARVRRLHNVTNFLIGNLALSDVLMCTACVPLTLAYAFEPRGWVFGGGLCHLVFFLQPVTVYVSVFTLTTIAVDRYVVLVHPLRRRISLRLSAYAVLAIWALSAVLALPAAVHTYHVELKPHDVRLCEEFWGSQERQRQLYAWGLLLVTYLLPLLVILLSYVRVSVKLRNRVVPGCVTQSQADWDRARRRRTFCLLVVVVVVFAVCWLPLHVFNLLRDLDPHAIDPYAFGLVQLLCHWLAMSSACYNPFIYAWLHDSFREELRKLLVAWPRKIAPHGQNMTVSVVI
Assay: radioligand binding on live CHO-19P2-9 cells, 200 pM tracer, non-specific binding with 200 nM unlabeled 19P2-L31, filtration
Excerpt: As receptor-expressing CHO cells, CHO-19P2-9; mono-clone of CHO-19P2, CHO-UHR-1, and mock CHO were used in this experiment. CHO-19P2-9 cells are ones selected from CHO-19P2 cells by ultradilution technique using 96-well microplate as clone which indicated stronger arachidonic acid metabolic-release promoting reaction by 19P2-L31. The mock CHO cells are ones for control which were transformed with expression vector pAKKO alone. These cells cultured in flasks for culturing tissues were harvested with 5 mM EDTA/PBS, and then resuspended in HBSS containing 0.05% BSA and 0.05% CHAPS at 0.5 ×10^7 cells/ml. […] The reaction mixture were diluted with 2 ml of an ice-cold beffer (50 mM Tris-HCl pH7.5 containing 5 mM EDTA, 0.05% BSA, and 0.05% CHAPS) and immediately filtered though glass filters GF/F (Whattman) which were pre-wetted with the buffer containing 0.3% polyethylenimine. The glass filters were subjected to γ-counting. Non-specific binding was determined in the presence of 200 nM unlabeled 19P2-L31.

binding result: binds
B1: [^125I]-19P2-L31 (19P2-L31 radioiodinated with [^125I]-Bolton-Hunter Reagent) (peptide)
peptide: SRAHQHSMEIRTPDINPAWYAGRGIRPVGRF-NH2
modifications: also: radioiodinated with [125I]-Bolton-Hunter reagent, site not given here
notes: also called radioiodinated 19P2-L31; radioiodinated ligand polypeptide
